Experimental data from article PMC4062475, “Cloning, Expression and Characterization of UDP-N-Acetylglucosamine Enolpyruvyl Transferase (MurA) from Wolbachia Endosymbiont of Human Lymphatic Filarial Parasite Brugia malayi” (PLoS ONE, 2014).

T1: wBm-MurA (Wolbachia endosymbiont of Brugia malayi, UniProt Q5GRP6)
T1 construct: full-length 1278 bp ORF in pET28a (BamHI/XhoI), His6-tagged, expressed in E. coli Rosetta(DE3)pLysS, Ni-NTA purified, ~51 kDa, tag removal not mentioned
T1 sequence (Q5GRP6 1-425): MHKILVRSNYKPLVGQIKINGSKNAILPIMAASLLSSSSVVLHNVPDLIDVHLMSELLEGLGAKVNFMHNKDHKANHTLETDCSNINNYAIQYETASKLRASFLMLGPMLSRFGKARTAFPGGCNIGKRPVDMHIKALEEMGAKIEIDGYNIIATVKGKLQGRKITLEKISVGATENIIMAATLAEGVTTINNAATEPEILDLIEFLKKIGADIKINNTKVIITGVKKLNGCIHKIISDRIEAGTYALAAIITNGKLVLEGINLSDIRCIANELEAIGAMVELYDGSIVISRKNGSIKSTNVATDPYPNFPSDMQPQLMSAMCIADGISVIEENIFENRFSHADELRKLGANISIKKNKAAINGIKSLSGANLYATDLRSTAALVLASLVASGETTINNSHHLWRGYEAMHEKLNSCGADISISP

B1: wBm-MurA (Wolbachia endosymbiont strain TRS of Brugia malayi) (protein)
chain: T1 sequence (Q5GRP6 1-425)
notes: full-length 1278 bp ORF in pET28a (BamHI/XhoI), His6-tagged, expressed in E. coli Rosetta(DE3)pLysS, Ni-NTA purified, ~51 kDa, tag removal not mentioned

Key:
wBm-MurA = biological target: T1, wBm-MurA; assay: malachite green phosphate release assay, […] min pre-incubation, […] h reaction; assay type: biochemical; conditions: 5 mM PEP, 0.6 mM UDPAG, pH 7.5, 37°C; competitive with PEP; covalent (as stated by authors)
[1] = substrate: C=C(OP(=O)(O)O)C(=O)O; assay: malachite green phosphate release assay, Michaelis-Menten non-linear fit; assay type: biochemical, Wolbachia endosymbiont of Brugia malayi; conditions: 5 mM UDPAG, 50 mM Tris-HCl pH 7.5, 10 mM KCl, 1 mM DTT, 10% glycerol, 37°C
[2] = substrate: CC(=O)N[C@H]1[C@@H](OP(=O)(O)OP(=O)(O)OC[C@H]2O[C@@H](n3ccc(=O)[nH]c3=O)[C@H](O)[C@@H]2O)O[C@H](CO)[C@@H](O)[C@@H]1O; assay: as above; assay type: biochemical, Wolbachia endosymbiont of Brugia malayi; conditions: 1 mM PEP, 50 mM Tris-HCl pH 7.5, 10 mM KCl, 1 mM DTT, 10% glycerol, 37°C

Molecule	fold decrease of activity at 50 mM (wBm-MurA)	Km [1]	Km [2]
C[C@@H]1O[C@@H]1P(=O)(O)O [fosfomycin]	~ 2 fold		
B1		9.198 µM	31.49 µM
